Test results from the supplement of paper PMC10567573.

B1: DUSP5 (parent)
chain: YSEYPECCVDVKPISQEKIESERA

Variants of: B1
Assay: protein stability index of a GFP-peptide fusion (GPS, HEK-293T) (PSI 1-6); higher = more stable
Conditions: c terminus: a fixed tail appended
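Note: lentivirally expressed fusions sorted by FACS into six bins by GFP to DsRed ratio, PSI derived from sequencing read proportions per bin multiplied by bin number.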

Protein stability index: each site, then its substitutions
S15: A 4.16 | Y 4.18 | I 3.82 | G 4.45 | Q 4.05 | V 3.96 | C 4.14 | D 4.81 | H 4.47 | P 4.38 | F 3.64 | K 3.68 | T 3.85 | E 4.18 | R 4.09 | L 3.68
K12: C 3.96 | I 3.72 | R 4.25 | T 4.07 | W 3.26 | M 4.18 | F 3.83 | Q 4.77 | N 4.07 | V 4.14 | H 4.95 | D 4.46 | A 4.47 | P 4.32 | S 3.02
Q16: A 3.74 | H 3.99 | Y 3.37 | M 4.3 | F 3.58 | E 4.33 | D 4.67 | S 3.85 | V 3.41 | I 3.9 | L 4.19 | N 4.59 | R 4.34 | G 4.06 | T 4.03 | P 4.38 | K 3.85 | W 2.83
V11: W 4.09 | R 3.45 | E 4.25 | S 4.24 | N 4.51 | M 4.09 | P 3.61 | L 3.84 | D 5.42 | T 3.95 | K 4.17 | C 3.38 | Q 5 | A 4.23 | F 3.53 | Y 3.4
I14: T 3.48 | R 3.45 | M 4.65 | K 4.43 | Y 3.84 | A 4.58 | Q 4.48 | E 4.5 | N 3.31 | C 3.86 | D 4.81 | H 4.29 | P 4.45 | G 3.83 | V 4.11 | W 3.9 | F 4.18 | S 4.4
D10: C 2.69 | R 2.84 | L 2.98 | I 2.6 | M 2.91 | N 2.18 | Y 3.04 | E 4.66 | H 3.15 | K 3.71 | P 3.96 | S 3.88 | F 2.47 | W 1.74 | A 3.56 | T 2.85
C8: N 5.64 | R 5.24 | H 5.2 | I 3.77 | V 4.35 | T 5.41 | M 4.59 | Q 4.58 | W 1.32 | L 4.07 | E 4.85 | S 4.66 | P 5.6 | G 5.25 | K 4.87 | D 4.84 | Y 2.15
V9: K 4.53 | L 4.7 | D 4.12 | S 4.93 | M 3.77 | Y 4.04 | I 4.35 | P 4.24 | A 4.26 | Q 4.47 | T 4.4 | W 3.39 | H 4.39 | R 2.94 | N 5.56 | C 4.12 | F 3.76 | E 5.56 | G 4.4
E17: I 3.17 | F 3.43 | Q 3.97 | N 3.61 | G 3.86 | D 3.75 | C 3.01 | M 2.53 | H 3.82 | A 4.41 | R 2.95 | K 3.21 | P 4.37
P13: D 4.47 | S 3.33 | C 4.88 | H 4.03 | G 4.03 | L 3.22 | E 4.19 | Y 3.29 | T 4.18 | M 3.5 | I 3.69 | A 4.56 | V 2.85 | K 4.12 | R 3.48 | Q 4.14 | F 3.85 | N 3.96 | W 3.17
